According to patent US20160251440A1 (Ablynx, published 2016):

Legend:
[1] = target: T1, recombinant IL-3Rα ectodomain (human, UniProt P26951 19-305); experiment: competition ELISA, coated mAb 7G3 + biotinylated IL-3Rα ectodomain
T1 construct: extracellular domain; also called recombinant IL-3Ra; biotinylated-IL-3Rα ectodomain
T1 sequence (looked up): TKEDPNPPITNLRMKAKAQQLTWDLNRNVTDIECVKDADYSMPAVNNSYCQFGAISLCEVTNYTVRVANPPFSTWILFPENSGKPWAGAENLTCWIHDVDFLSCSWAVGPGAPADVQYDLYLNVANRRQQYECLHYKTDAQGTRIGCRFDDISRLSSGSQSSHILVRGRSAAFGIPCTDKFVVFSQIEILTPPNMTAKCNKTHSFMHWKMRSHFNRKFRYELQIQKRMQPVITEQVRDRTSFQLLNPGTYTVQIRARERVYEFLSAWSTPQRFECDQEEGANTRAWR

[2] = target: T2, human IL-3Rα (CD123), cell-expressed (human, UniProt P26951 19-378); experiment: FACS, THP-1 cells
T2 construct: whole, on cells; also called IL-3Ra; Hek-IL-3Rα

[3] = target: T3, human CXCR4 (on cells, viral lipoparticles or membrane extracts) (human, UniProt P61073 1-352); experiment: ELISA on coated CXCR4 viral lipoparticles (both upper panels)
T3 construct: whole, on cells; also called hCXCR4 VLPs; CXCR4-lip
T3 sequence (P61073 whole entry): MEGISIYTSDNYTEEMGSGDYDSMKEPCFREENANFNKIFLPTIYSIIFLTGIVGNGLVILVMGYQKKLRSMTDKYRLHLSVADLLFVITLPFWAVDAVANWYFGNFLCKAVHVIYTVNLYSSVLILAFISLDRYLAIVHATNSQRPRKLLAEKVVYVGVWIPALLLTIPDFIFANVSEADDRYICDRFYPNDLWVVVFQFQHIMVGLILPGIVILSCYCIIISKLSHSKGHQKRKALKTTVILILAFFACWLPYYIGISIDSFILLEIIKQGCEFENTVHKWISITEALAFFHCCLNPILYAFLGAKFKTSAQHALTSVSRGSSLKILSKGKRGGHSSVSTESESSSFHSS

[4] = target: T1, recombinant IL-3Rα ectodomain; experiment: SPR ProteOn, immobilised IL-3Rα ectodomain
[5] = target: T2, human IL-3Rα (CD123), cell-expressed; experiment: FACS, HEK293T-IL-3Rα cells
[6] = target: T2, human IL-3Rα (CD123), cell-expressed; experiment: flow cytometry on Molm-13 cells; EC50(M) printed in the legend box beside the curves
[7] = target: T1, recombinant IL-3Rα ectodomain; experiment: ELISA on recombinant IL-3Ra ectodomain (lower right panel)
[8] = target: T2, human IL-3Rα (CD123), cell-expressed; experiment: FACS, MOLM-13 cells
[9] = target: T3, human CXCR4 (on cells, viral …); experiment: flow cytometry at one concentration on Jurkat E6-1 cells (CXCR4+/CD123-), anti-FLAG detection
[10] = target: T1, recombinant IL-3Rα ectodomain; experiment: ELISA on recombinant IL-3Ra ectodomain (panel 'IL-3Ra ELISA', lower left)
[11] = target: T4, CXCR4 and CD4 co-expressed on cells (MOLM-13, THP-1, MT-4, PBMC; Jurkat CD4 low) (human, UniProt P61073 1-352; P01730 26-458); experiment: cell-based or functional assay
T4 sequence (P61073 whole entry, chain 1 of 2, other chains not shown): as the sequence (P61073 whole entry) above

[12] = target: T4, CXCR4 and CD4 co-expressed on cells …; experiment: FACS, MOLM-13 cells (CXCR4+/CD4+)
[13] = target: T4, CXCR4 and CD4 co-expressed on cells …; experiment: cell-based or functional assay; remark: listed apart in the source
[14] = target: T4, CXCR4 and CD4 co-expressed on cells …; experiment: FACS, THP-1 cells
[15] = target: T3, human CXCR4 (on cells, viral …); experiment: cell-based or functional assay
[16] = target: T4, CXCR4 and CD4 co-expressed on cells …; experiment: FACS, Jurkat E6-1 cells (CXCR4+/CD4 low)
[17] = target: T4, CXCR4 and CD4 co-expressed on cells …; experiment: cell-based or functional assay; remark: listed apart in the source
[18] = target: T4, CXCR4 and CD4 co-expressed on cells …; experiment: cell-based or functional assay; remark: listed apart in the source
[19] = target: T5, CXCR4 and IL-3Rα (CD123) co-expressed on MOLM-13 / THP-1 cells (human, UniProt P61073 1-352; P26951 19-378); experiment: flow cytometry at one concentration, 4.6 nM, on MOLM-13 cells (CXCR4+/CD123+), anti-FLAG detection
T5 construct: whole, on cells; two separate membrane proteins on one cell, not a complex; target of bispecifics on double-positive cells; also called CXCR4+/CD123+ cells
T5 sequence (P61073 whole entry, one chain of several): as the sequence (P61073 whole entry) above

[20] = target: T3, human CXCR4 (on cells, viral …); experiment: ELISA on coated CXCR4 viral lipoparticles (panel 'CXCR4 VLP Binding', upper left)
[21] = target: T6, human IL12Rβ1, cell-expressed (human, UniProt P42701 24-662); experiment: cell-based or functional assay
[22] = target: T7, human IL12Rβ1 extracellular domain Fc-fusion (human, UniProt P42701 24-545); experiment: competition ELISA, coated IL-12 + 2 nM IL12Rβ1-Fc
T7 construct: extracellular domain; bought; also called IL12Rβ1-Fc; hIL-12Rβ1-Fc; not shown: Fc part, captured by anti-hIgG

[23] = target: T7, human IL12Rβ1 extracellular domain …; experiment: SPR Biacore T100, captured IL12Rβ1-Fc
[24] = target: T7, human IL12Rβ1 extracellular domain …; experiment: competition ELISA, coated IL-12 + IL12Rβ1-Fc
[25] = target: T7, human IL12Rβ1 extracellular domain …; experiment: competition ELISA, coated IL-23 + 2 nM IL12Rβ1-Fc
[26] = target: T8, human CD4, cell-expressed (human, UniProt P01730 26-458); experiment: flow cytometry on MOLM-13 cells (CD4, no IL12R or IL23R), lower left panel
T8 construct: whole, on cells

[27] = target: T7, human IL12Rβ1 extracellular domain …; experiment: competition ELISA, coated IL-23 + IL12Rβ1-Fc
[28] = target: T6, human IL12Rβ1, cell-expressed; experiment: cell-based or functional assay; remark: listed apart in the source
[29] = target: T6, human IL12Rβ1, cell-expressed; experiment: FACS, activated human T cells

B1: 57A07 (VHH)
VHH: EVQLVESGGGLVQAGGSLRLSCAASGSIFSGNVMGWYRRQAPGKEREWVAAIASGGSIYYRDSVKGRFTISRDNAKNTVYLQMNSLKPEDTAVYYCNSHPPTLPYWGLGTQVTVSS
notes: also called CD123#1; A0110057A07
In the case of B1, the IC50 [1] is reported as 1.2 nM, the EC50 [2] is reported as 1.3 nM and the binding result [3] is reported as “no binding (tested: about 1E-5 M)”. It also gave a Kd [4] of 0.783 nM, a koff [4] of 0.00081 s⁻¹ and a kon [4] of 1e+06 M⁻¹ s⁻¹. The EC50 [5] was 0.24 nM, the EC50 [6] was 0.67 nM and the “EC50 (read off the curve)” value [7] was ~0.5 nM. It also gave an EC50 [8] of 0.66 nM.

B2: 55A01 (VHH)
VHH: EVQLVESGGGSVQAGGSLRLSCTTSGRALNMYVMGWFRQAPGNEREFVAATSSSGGSTSYPDSVKGRFTISRDNAKNTVYLQMNSLKPEDTAAYRCAASPYVSTPTMNILEEYRYWGLGTQVTVSS
notes: also called CD123#2; A0110055A01
B2 was tested, and the IC50 [1] was 40 nM, the binding result [9] was “no binding (tested: 4.6 nM)” and the EC50 [2] was 11 nM. The Kd [4] was 17.1 nM, the koff [4] was 0.0014 s⁻¹ and the kon [4] was 84000 M⁻¹ s⁻¹. For the same binder, the EC50 [5] was 1.1 nM, the “EC50 (read off the curve)” value [10] was ~1 nM and the EC50 [6] was 13 nM. For the same binder, the EC50 [8] was 8.2 nM.

B3: 281F12-35GS-03F11 (bispecific antibody)
chain: EVQLVESGGGLVQAGDSLRLSCAASGRAFSRYAMGWFRQAPGKEREFVAAIGWGPSKTNYADSVKGRFTISRDNAKNTVYLQMNTLKPEDTAVYSCAAKFVNTDSTWSRSEMYTYWGQGTQVTVSSGGGGSGGGGSGGGGSGGGGSGGGGSGGGGSGGGGSEVQLVESGGGSVQPGGSLTLSCGTSGRTFNVMGWFRQAPGKEREFVAAVRWSSTGIYYTQYADSVKSRFTISRDNAKNTVYLEMNSLKPEDTAVYYCAADTYNSNPARWDGYDFRGQGTQVTVSS
notes: also called CXCR4#2-35GS-CD4#8; CXCR4#2-CD4#8
B3 was tested, and the “IC50, HIV-1 HE, MT-4” value [11] was 0.0906 nM, the “IC50, HIV-1 NL4.3, MT-4” value [11] was 0.187 nM and the “IC50, HIV-2 ROD, MT-4” value [11] was 0.3 nM. For the same binder, the EC50 [12] was 1.1 nM, the “enhancement vs monovalent CD4#8, HIV-1 BaL, PBMC” value [13] was ~200 fold and the EC50 [14] was 0.67 nM. The “Fold increase vs CXCR4#2, Jurkat E6-1” value [15] was 0.8 fold, the “Fold increase vs CXCR4#2, MOLM-13” value [15] was 146 fold and the “IC50, SDF-1 chemotaxis, Jurkat E6-1” value [15] was 110 nM. The “IC50, SDF-1 chemotaxis, MOLM-13” value [15] was 0.59 nM, the EC50 [16] was 11 nM and the “IC50, HIV-1 BaL (R5), PBMC” value [17] was 2.46 nM. The “IC50, HIV-1 NL4.3 (X4), MT-4” value [17] was 0.24 nM, the “IC50, HIV-1 NL4.3 (X4), PBMC” value [17] was 0.37 nM and the “IC50, HIV-1 NL4.3 (X4), U87” value [17] was 2.67 nM. The “IC50, HIV-1 NL4.3 wt, MT-4” value [18] was 0.187 nM, the “IC50, NL4.3 2G12 res., MT-4” value [18] was 0.11 nM and the “IC50, NL4.3 AMD-3100 res., MT-4” value [18] was 1.13 nM. The “IC50, NL4.3 CD4#8 res., MT-4” value [18] was 0.31 nM, the “IC50, NL4.3 CXCL-12res., MT-4” value [18] was 0.433 nM and the “IC50, NL4.3 CXCR4#2 res, MT-4” value [18] was 1.4 nM.

B4: 57A07-35GS-281F12 (bispecific antibody)
chain: EVQLVESGGGLVQAGGSLRLSCAASGSIFSGNVMGWYRRQAPGKEREWVAAIASGGSIYYRDSVKGRFTISRDNAKNTVYLQMNSLKPEDTAVYYCNSHPPTLPYWGQGTLVTVSSGGGGSGGGGSGGGGSGGGGSGGGGSGGGGSGGGGSEVQLVESGGGLVQAGDSLRLSCAASGRAFSRYAMGWFRQAPGKEREFVAAIGWGPSKTNYADSVKGRFTISRDNAKNTVYLQMNTLKPEDTAVYSCAAKFVNTDSTWSRSEMYTYWGQGTLVTVSS
notes: FLAG3-His6 also made; also called CD123#1-CXCR4#2; 57A07-281F12
B4 was tested, and the binding result [19] was “binds”, the “EC50 (read off the curve)” value [7] was ~0.5 nM and the binding result [20] was “binds”.

B5: IL12Rb1#30: 148C09 (VHH)
VHH: EVQLVESGGGLVQTGGSLRLSCAASGRTPRLVAMGWFRQTPGKEREFVGEIILSKGFTYYADSVKGRFTISRVNAKNTITMYLQMNSLKSEDTAVYYCAGRQNWSGSPARTNEYEYWGQGTLVTVSS
notes: also called IL12Rβ1#30; LG148C09
With B5 the “IC50, IL-17 release, PBMC D840” value [21] was 35.5 nM, the IC50 [22] was 3.7 nM and the Kd [23] was 3.3 nM. It also gave a koff [23] of 0.0015 s⁻¹, a kon [23] of 450000 M⁻¹ s⁻¹ and an IC50 [24] of 3.7 nM. The IC50 [25] was 1.5 nM, the binding result [26] was “no binding (tested: 1E-6 M)” and the IC50 [27] was 1.5 nM. The “IC50, IL-12 induced IFNγ release, PBMC D840” value [28] was 17 nM, the “IC50, IL-12 induced IFNγ release, T cells D839” value [28] was 140 nM and the EC50 [29] was 1.3 nM.
